What was measured:
Experiment in all cases: ELISA
[1] = target: gp120-ferritin (gp120-FR) nanoparticle
[2] = target: N332 nanoparticle (1GUT_A_ES-FR)
[3] = target: clade-C (ZM109) V1V2-ferritin nanoparticle (V1V2-FR) (HIV-1 ZM109 (clade C) | )

B1: PGT133 (antibody, V domains shown)
VH: QVHLQESGPGLVTPSETLSLTCTVSNGSVSGRFWSWIRQSPGRGLEWIGYFSDTDRSEYNPSLRSRLTLSVDRSKNQLSLRLKSVTAADSATYYCARAQQGKRIYGIVSFGEFFYYYYMDAWGKGTPVTVSS
VL: LSLAPGATAKIPCGERSRGSRAVQWYQQKPGQAPTLIIYNNQDRPAGVSERFSGNPDVAIGVTATLTISRVEVGDEADYYCHYWDSRSPISWIFGGGTQLTVL
[1]
  EC50: 0.042 µg/mL
[2]
  EC50: 0.024 µg/mL
[3]
  EC50: 0.26 µg/mL

B2: PGT124 (antibody, V domains shown)
VH: QVQLQESGPGLVRPSETLSVTCIVSGGSISNYYWTWIRQSPGKGLEWIGYISDRETTTYNPSLNSRAVISRDTSKNQLSLQLRSVTTADTAIYFCATARRGQRIYGVVSFGEFFYYYYMDVWGKGTAVTVSS
VL: SYVSPLSVALGETARISCGRQALGSRAVQWYQHKPGQAPILLIYNNQDRPSGIPERFSGTPDINFGTTATLTISGVEVGDEADYYCHMWDSRSGFSWSFGGATRLTVL
[1]
  EC50: 0.026 µg/mL
[2]
  EC50: 0.03 µg/mL
